These results are taken from article PMC12633535 (bioRxiv, 2025).

The labels stand for the following.
T1: GST-ICAT (a.a. Met1-Gln81) (UniProt Q9NSA3 1-81)
T1 sequence (looked up): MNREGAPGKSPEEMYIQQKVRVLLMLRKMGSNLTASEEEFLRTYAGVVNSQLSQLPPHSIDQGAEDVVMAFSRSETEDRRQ

T2: full-length β-catenin E462K, untagged (human, UniProt P35222 1-781, E462K)
T2 sequence (looked up): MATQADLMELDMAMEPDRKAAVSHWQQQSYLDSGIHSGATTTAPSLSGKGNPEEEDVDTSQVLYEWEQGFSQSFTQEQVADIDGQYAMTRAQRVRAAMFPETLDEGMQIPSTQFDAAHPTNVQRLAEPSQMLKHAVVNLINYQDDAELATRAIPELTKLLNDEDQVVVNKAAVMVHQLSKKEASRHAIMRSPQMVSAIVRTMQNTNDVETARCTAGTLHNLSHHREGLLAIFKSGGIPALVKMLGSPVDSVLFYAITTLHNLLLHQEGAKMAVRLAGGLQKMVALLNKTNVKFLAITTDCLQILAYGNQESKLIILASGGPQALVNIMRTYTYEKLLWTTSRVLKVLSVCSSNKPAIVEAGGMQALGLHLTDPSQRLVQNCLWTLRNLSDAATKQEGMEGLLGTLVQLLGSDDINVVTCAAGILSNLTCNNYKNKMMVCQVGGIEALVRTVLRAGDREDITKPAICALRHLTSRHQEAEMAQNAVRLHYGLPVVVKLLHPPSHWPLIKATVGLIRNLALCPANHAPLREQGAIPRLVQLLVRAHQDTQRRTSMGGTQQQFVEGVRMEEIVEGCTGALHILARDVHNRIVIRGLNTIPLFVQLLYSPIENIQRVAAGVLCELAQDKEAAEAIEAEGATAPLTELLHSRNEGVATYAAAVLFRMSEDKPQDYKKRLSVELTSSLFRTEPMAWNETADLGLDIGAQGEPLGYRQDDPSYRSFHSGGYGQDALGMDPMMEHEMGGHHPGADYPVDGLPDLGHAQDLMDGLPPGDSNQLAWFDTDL

T3: β-catenin C619Y/E620K (purified, full length, untagged) (human, UniProt P35222 1-781, C619Y | E620K)
T3 sequence (looked up): T2 sequence (looked up) with K462E, C619Y, E620K

B1: full-length β-catenin, untagged, wild type (natural protein, human, UniProt P35222 1-781, looked up)
chain: T2 sequence (looked up) with K462E
B2: β-catenin D624K/E626K/E628K (purified, full length, untagged) (natural protein)
chain: T2 sequence (looked up) with K462E, D624K, E626K, E629K
B3: GST-tagged AXIN1 CBD peptide V475I/L479W (a.a. 435-498) (domain or fragment, human, UniProt O15169-1 435-498, looked up)
chain: CHKLPPAPAWHHFPPRCVDMGCAGLRDAHEENPESILDEHIQRVWRTPGRQSPGPGHRSPDSGH
B4: GST-tagged AXIN1 CBD peptide V475I (a.a. 435-498) (domain or fragment, human, UniProt O15169-1 435-498, looked up)
chain: B3 chain with W45L
B5: full-length β-catenin R469H, untagged (natural protein, human, UniProt P35222 1-781, looked up)
chain: T2 sequence (looked up) with K462E, R469H
B6: purified β-catenin E571K (full length, untagged) (natural protein, human, UniProt P35222 1-781, looked up)
chain: T2 sequence (looked up) with K462E, E571K
B7: full-length β-catenin C466Y/A467T, untagged (natural protein, human, UniProt P35222 1-781, looked up)
chain: T2 sequence (looked up) with K462E, C466Y, A467T
B8: GST-tagged AXIN1 CBD peptide, wild type (a.a. Cys435-His498) (domain or fragment, human, UniProt O15169-1 435-498, looked up)
chain: B3 chain with I41V, W45L
B9: GST-tagged TCF4 fragment (a.a. 1–53) (domain or fragment, UniProt Q9NQB0 1-53, looked up)
chain: MPQLNGGGGDDLGANDELISFKDEGEQEEKSSENSSAERDLADVKSSLVNESE

Test in all cases: BLI
The target of test [1] is B3.
Test [2] deals with T1, GST-ICAT (a.a. Met1-Gln81).
Test [3] deals with B9.
Test [4] addresses B1.
The target of test [5] is B1. This is another data set of the same source.
The target in test [6] is T2, full-length β-catenin E462K, untagged.
In test [7] the target is T3, β-catenin C619Y/E620K (purified, full …).

Numbering of substitutions follows the chain as printed. Names may count otherwise.

Take B1: in test [1], the “fold decrease of koff against the wild-type CBD peptide” value was roughly 20 fold and the “half-life of the complex” value was roughly 1 min. B2: the “fold reduction of affinity against wild-type β-catenin” value (“fold reduction of affinity” for short) in test [2] and in test [3] was roughly 10 fold throughout. In test [4], B3 displayed a Kd of 40 nM. Same read-out and setting: for B4 the value was roughly 450 nM. In the case of B5, in test [3], the “fold reduction of affinity” value is greater than 10 fold. Turning to B6, in test [3], the “fold reduction of affinity” value is roughly 7 fold. Still for that read-out and setting: for B7 the value was greater than 10 fold. Regarding B8, in test [4], the Kd is 1000 nM.

B9: the binding result in test [5], in test [6] and in test [7] was “binds” in each case.
